What was measured:
[1] = molecular target: T1, human CLDN6 VLP (Homo sapiens, UniProt P56747); test: Biacore T200 SPR affinity to human CLDN6 VLP; assay type: binding; settings: human CLDN6, 25 degree C, pH 7.4
T1 sequence (P56747 1-220): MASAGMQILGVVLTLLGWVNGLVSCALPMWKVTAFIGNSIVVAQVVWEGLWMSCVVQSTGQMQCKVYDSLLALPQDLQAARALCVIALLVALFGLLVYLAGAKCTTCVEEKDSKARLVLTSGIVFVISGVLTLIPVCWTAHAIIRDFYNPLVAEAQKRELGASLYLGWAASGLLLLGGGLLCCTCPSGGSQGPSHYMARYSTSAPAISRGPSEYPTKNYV
Procedure: (§1) The binding affinity of the anti-CLDN6/Dual-Fab tri-specific antibody against human and cynomolgus (cyno) CLDN6 VLP (virus-like particle) at pH 7.4 was determined at 25 degree C. using Biacore T200 instrument (GE Healthcare). Anti-human CD81 (BD Pharmingen) antibody was immobilized onto all flow cells of a C1 sensor chip using amine coupling kit (GE Healthcare). Human and cyno CLDN6 VLP were captured onto the sensor surface by the anti-human CD81 antibody. Each VLP was 5-fold dilution by buffer (20 mM NaPhosphate, 150 mM NaCl, 0.1 mg/mL BSA, 0.005% NaN3, pH 7.4). Tested antibody was prepared in buffer (20 mM NaPhosphate, 150 mM NaCl, 0.1 mg/mL BSA, 0.005% NaN3, pH 7.4). Anti-CLDN6/Dual-Fab tri-specific antibody was injected at 50 and 200 nM, followed by dissociation. Sensor surface was regenerated each cycle with 0.1% SDS and 100 mM H3PO4. […] Binding affinities were determined by processing and fitting the data to 1:1 binding model using Biacore T200 Evaluation software, version 2.0 (GE Healthcare).

[2] = system: cyno CLDN6 VLP; test: Biacore T200 SPR affinity to cyno CLDN6 VLP; assay type: binding, cynomolgus; settings: cyno CLDN6, 25 degree C, pH 7.4
Procedure: as §1

[3] = molecular target: T2, recombinant human CD137 (Homo sapiens, UniProt Q07011); test: Biacore 8K SPR affinity to human CD137; assay type: binding; settings: human CD137, 37 degree C, pH 7.4
T2 construct: made in house; host or cells: FreeStyle293F
Procedure: (§2) The binding affinity of the anti-CLDN6/Dual-Fab tri-specific antibody against recombinant human and cyno CD3eg (gamma and epsilon subunits of CD3) at pH 7.4 was determined at 25 degree C. using Biacore 8K instrument (GE Healthcare). The binding affinity of the anti-CLDN6/Dual-Fab tri-specific antibody against recombinant human and cyno CD137 at pH 7.4 was determined at 37 degree C. using Biacore 8K instrument (GE Healthcare). Anti-human Fc (GE Healthcare) antibody was immobilized onto all flow cells of a CM4 sensor chip using amine coupling kit (GE Healthcare). Tested antibody and analytes were prepared in ACES pH 7.4 containing 20 mM ACES, 150 mM NaCl, 0.05% Tween 20, 0.005% NaN3. Anti-CLDN6/Dual-Fab tri-specific antibody was captured onto the sensor surface by anti-human Fc. Antibody capture levels were aimed at 300 resonance unit (RU). Recombinant CD3eg and CD137 were injected at both 500 and 2000 nM, followed by dissociation. Sensor surface was regenerated each cycle with 3M MgCl2. […] Binding affinities were determined by processing and fitting the data to 1:1 binding model using Biacore Insight Evaluation software (GE Healthcare).

[4] = molecular target: recombinant cyno CD137 (Macaca fascicularis, UniProt A9YYE7); test: Biacore 8K SPR affinity to cyno CD137; assay type: binding, cynomolgus; settings: cyno CD137, 37 degree C, pH 7.4
Procedure: as §2

[5] = Single dose toxicology study; assay type: in vivo, cynomolgus monkey
Procedure: Potential toxicity of PPU4135 antibody (anti-CLDN6/Dual-Fab tri-specific antibody) was evaluated in toxicity study using cynomolgus monkeys compared with CS3348 antibody (anti-CLDN6/CD3 bispecific antibody). Because both PPU4135 and CS3348 antibodies cross-reacted with their antigens of cynomolgus monkey, cynomolgus monkey was selected as the animal species for evaluations in the in vivo toxicology studies. Since toxicological findings seemed to be more sensitive in male than female animals in the toxicity study with CS3348 (FIG. 14), 2 males were used for evaluation of the PPU4135-mediated toxicity. In these studies, dose levels were set at 100 (for CS3348) or 90 (for PPU4135) micro g/kg, which were approximately 2.57-fold efficacious concentration producing 80% of the maximal response.

[6] = system: SNG-M; test: SNG-M xenograft in huNOG mice, combination with carboplatin; assay type: in vivo; settings: 30 days after transplantation; CS4135 0.5 mg/kg iv day 13, carboplatin 40 mg/kg ip days 13, 16, 20
Procedure: In this test, NOG (huNOG) mice (described in the aforementioned Example 13) transplanted with human uterus cancer cell line SNG-M and human CD34-positive cells were used. The SNG-M cell line was transplanted subcutaneously to the right flank of the mice, and the mice were divided into groups 13 days after transplantation. Individuals whose tumor volume reached 130 to 244 mm^3 were divided into groups. Vehicle 1 and CS4135 were administered into the mouse tail vein 13 days after transplantation. PBS containing 0.05% Tween-20 was used as Vehicle 1. Vehicle 2 and carboplatin (Bristol Myers Squibb Company) were administered intraperitoneally to the mice 13, 16, and 20 days after transplantation. Physiological saline was used as Vehicle 2.
Tumor volume was measured 13, 16, 20, 23, 26, and 30 days after transplantation, and the average tumor volume was indicated for each group.
The tumor volume was calculated by the following equation: […]
Tumor Growth Inhibition (TGI) was calculated by the following equation: […]

[7] = system: UWB1.289; test: LDH release cytotoxicity on olaparib-treated UWB1.289; assay type: cell-based; settings: UWB1.289, olaparib 3 μM three days vs DMSO, human PBMC
Procedure: (§3) The effect of the enhanced induction of CLDN6 expression in BRCA1-deficient ovarian cancer cell line UWB1.289, caused by the PARP inhibitor (olaparib), on the cytotoxic activity of anti-CLDN6/Dual-Fab tri-specific antibody CS4135 was assessed.
(§4) BRCA1-deficient ovarian cancer cell line UWB1.289 (ATCC) or BRAC1 wildtype ovarian cancer cell line OV-90 (ATCC) which express human CLDN6 were used as target cells.
(§5) Each target cell (3×10^5 cells) were seeded at 5 mL into a 25 cm^2-flask. Two flasks were prepared for each target cell. After culturing overnight, olaparib was added at a final concentration of 3 μM to one of the two flasks. DMSO was added to the other flask. After incubating the flasks for three days, the target cells were recovered, and the cytotoxic activity of the CS4135 antibody was evaluated by […] (LDH) release assay using human PBMC as the effector cell.

[8] = system: OV-90; test: LDH release cytotoxicity on olaparib-treated OV-90; assay type: cell-based; settings: OV-90, olaparib 3 μM three days vs DMSO, human PBMC
Procedure: as §3, §4, §5

Sequence of recombinant cyno CD137 (A9YYE7 1-254): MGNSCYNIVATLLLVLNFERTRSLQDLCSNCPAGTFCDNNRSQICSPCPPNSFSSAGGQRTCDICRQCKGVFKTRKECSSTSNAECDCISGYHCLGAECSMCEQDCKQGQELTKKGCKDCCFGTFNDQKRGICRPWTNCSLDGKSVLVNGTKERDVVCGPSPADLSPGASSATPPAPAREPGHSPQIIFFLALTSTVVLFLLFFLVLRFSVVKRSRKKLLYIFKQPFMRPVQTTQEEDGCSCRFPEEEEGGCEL
T2 sequence (Q07011 with tags, fused parts or gaps): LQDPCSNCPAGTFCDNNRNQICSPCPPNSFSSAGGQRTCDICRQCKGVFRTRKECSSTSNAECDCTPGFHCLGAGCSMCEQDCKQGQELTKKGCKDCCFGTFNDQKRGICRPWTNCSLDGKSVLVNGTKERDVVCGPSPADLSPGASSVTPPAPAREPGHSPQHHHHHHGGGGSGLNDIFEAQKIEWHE

B1: PPU4135: anti-CLDN6/Dual-Fab tri-specific antibody, chains SEQ ID NOs 42, 51, 56, 69; CS4135 same antibody (protein)
chain 1: QVQLVESGGGVVQPGGSLRLSCAASGFTFSSYTMSWVRQAPGQGLEWMGTISSGGGRTYYPDSVKGRFTISRDNSKNTLYLQMNSLRDEDTAVYYCARGDYRYDGFAYWGEGTLVTVSSASTKGPSVFPLAPSSKSTSGGTAALGCLVEDYFPEPVTVSWNSGALTSGVHTFPAVLESSGLYSLSSVVTVPSSSLGTQTYICNVNHKPSNTKVDKRVEPKSCDKTHTCPPCPAPEAAGGPSVFLFPPKPKDTLMISRTPEVTCVVVDVSHEDPEVKFNWYVDGVEVHNAKTKPREEQYASTYRVVSVLTVLHQDWLNGKEYKCKVSNKALPAPIEKTISKAKGQPREPQVYTLPPSREEMTKNQVSLTCLVKGFYPSDIAVEWESNGQPENNYKTTPPVLDSDGSFFLYSKLTVDKSRWQQGNVFSCSVMHEALHNHYTQESLSLSP
chain 2: DIQMTQSPSSLSASVGDRVTITCRASYNIDSYLAWYQQKPGKAPELLIYYSTLLVDGVPDRFSGSRSGTDFTLTISSLQPEDFATYYCQHYYSIPYTFGQGTKVEIERTVAAPSVFIFPPSDEQLKSGTAKVVCLLNNFYPREAKVQWKVDNALQSGNSKESVTEQDSKDSTYSLSSTLTLSKADYEKHKVYACEVTHQGLSSPVTKSFNRGEC
chain 3: QVQLVESGGGLVQPGRSLRLSCAASGFKFSNVWFHWVRQAPGKGLEWVAQIKDYYNAYAAYYAPSVKGRFTISRDDSKNSIYLQMNSLKTEDTAVYYCHYVHYASASTLLPAEGVDAWGQGTTVTVSSASTKGPSVFPLAPSSKSTSGGTAALGCLVKDYFPEPVTVSWNSGALTSGVHTFPAVLKSSGLYSLSSVVTVPSSSLGTQTYICNVNHKPSNTKVDKRVEPKSCDKTHTCPPCPAPEAAGGPSVFLFPPKPKDTLMISRTPEVTCVVVDVSHEDPEVKFNWYVDGVEVHNAKTKPREEQYASTYRVVSVLTVLHQDWLNGKEYKCKVSNKALPAPIEKTISKAKGQPREPQVYTLPPSRKEMTKNQVSLTCLVKGFYPSDIAVEWESNGQPENNYKTTPPVLDSDGSFFLYSKLTVDKSRWQQGNVFSCSVMHEALHNHYTQKSLSLSP
chain 4: DIVMTQSPLSLPVTPGEPASISCQPSQEVVHMNRNTYLHWYQQKPGQAPRLLIYKVSNRFPGVPDRFSGSGSGTDFTLKISRVEAEDVGVYYCAQGTSHPFTFGQGTKLEIKRTVAAPSVFIFPPSDEQLKSGTAEVVCLLNNFYPREAKVQWKVDNALQSGNSEESVTEQDSKDSTYSLSSTLTLSKADYEKHKVYACEVTHQGLSSPVTKSFNRGEC
ka [1]: 217000 M⁻¹ s⁻¹ | kd [1]: 0.000794 s⁻¹ | ka [2]: 218000 M⁻¹ s⁻¹ | kd [2]: 0.000821 s⁻¹ | ka [3]: 12600 M⁻¹ s⁻¹ | kd [3]: 0.000591 s⁻¹ | ka [4]: 8350 M⁻¹ s⁻¹ | kd [4]: 0.00146 s⁻¹ | hepatobiliary damage parameters and inflammatory marker elevations ([5]; PPU4135 90 micro g/kg compared with CS3348 100 micro g/kg): dramatically mitigated | AST, ALT, GLDH, ALP, TBIL, GGT, TBA and CRP ([5]; male animals, after single IV administration): Increased | plasma exposure levels ([5]; male animals, until Day 8, PPU4135 90 vs CS3348 100 micro g/kg single IV): comparable | Tumor growth inhibition: TGI [6]: 35% | cytotoxic activity after addition of olaparib [7]: enhancement of cytotoxicity | cytotoxic activity after addition of olaparib [8]: no effect on cytotoxic activity

Reference: patent US20240425589A1, “CYTOTOXICITY-INDUCING THERAPEUTIC AGENT FOR USE IN TREATMENT OF CANCER” (CHUGAI SEIYAKU KABUSHIKI KAISHA, priority 2021, published 2024)
